Results as given in the supplement of paper PMC9428881.
± gives the standard error.

Test: background-corrected fluorescence of 3'-dye-labeled ssDNA relative to brightest sequence (3'-GCGCG) (fraction); higher = brighter dye fluorescence (less quenching)
Summary of the method: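 Each of 1024 permuted pentamers was synthesized as single-stranded DNA on glass slides by light-directed phosphoramidite chemistry, with a 3' Cy3 or Cy5 dye alongside. Arrays were scanned at 532 or 635 nm before and after overnight deprotection with ethylenediamine/ethanol. Values average 10 features per array across at least 3 syntheses. The fluorescence readout, with unlabeled-oligo background removed, is given relative to the brightest sequence.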

| Sequence | background-corrected fluorescence (dye: Cy3 (3' terminal)) | background-corrected fluorescence (dye: Cy5 (3' terminal)) |
| --- | --- | --- |
| TTTTTTGATGATCATGATGCTTTTTTTTTTTTTTTCCGCA [ACGCC] | 0.539 ± 0.034 | 0.475 ± 0.024 |
| TTTTTTCATCATCAGCATCATTTTTTTTTTTTTTTGGGTG [GTGGG] | 0.627 ± 0.025 | 0.428 ± 0.024 |
| TTTTTGCATGAGCATCATCATTTTTTTTTTTTTTTTCTGG [GGTCT] | 0.563 ± 0.024 | 0.43 ± 0.035 |
| TTTTTGCAGCATGAGCATCATTTTTTTTTTTTTTTTTCTG [GTCTT] | 0.472 ± 0.026 | 0.338 ± 0.046 |
| TTTTTTGAGCATGATCATCATTTTTTTTTTTTTTTCTCGG [GGCTC] | 0.641 ± 0.034 | 0.508 ± 0.037 |
| TTTTTTGATGATGCTCAGCATTTTTTTTTTTTTTTCCAGT [TGACC] | 0.615 ± 0.023 | 0.458 ± 0.021 |
| TTTTTTCATGCTGCTGAGCATTTTTTTTTTTTTTTGAACT [TCAAG] | 0.5 ± 0.016 | 0.36 ± 0.025 |
| TTTTTTGAGCATCATGATGCTTTTTTTTTTTTTTTCTGCA [ACGTC] | 0.557 ± 0.03 | 0.452 ± 0.046 |
| TTTTTTCATCAGCATGATGCTTTTTTTTTTTTTTTGGTCA [ACTGG] | 0.506 ± 0.027 | 0.414 ± 0.02 |
| TTTTTGCATGCGCATGATGCTTTTTTTTTTTTTTTTATCA [ACTAT] | 0.478 ± 0.033 | 0.407 ± 0.053 |
| TTTTTGCATGATGCTGATGCTTTTTTTTTTTTTTTTCACA [ACACT] | 0.485 ± 0.015 | 0.379 ± 0.034 |
| TTTTTTGATGATCATCATGCTTTTTTTTTTTTTTTCCGGA [AGGCC] | 0.773 ± 0.024 | 0.714 ± 0.045 |
| TTTTTTGAGCATGCTGCTCATTTTTTTTTTTTTTTCTAAG [GAATC] | 0.542 ± 0.044 | 0.427 ± 0.031 |
| TTTTTTCATGATGCTGATGATTTTTTTTTTTTTTTGCACC [CCACG] | 0.391 ± 0.024 | 0.28 ± 0.022 |
| TTTTTTCATGCTGCTGCTGCTTTTTTTTTTTTTTTGAAAA [AAAAG] | 0.63 ± 0.012 | 0.491 ± 0.052 |
| TTTTTTCAGCATCATGCTCATTTTTTTTTTTTTTTGTGAG [GAGTG] | 0.619 ± 0.028 | 0.472 ± 0.057 |
| TTTTTTCATGATCATGCTCATTTTTTTTTTTTTTTGCGAG [GAGCG] | 0.608 ± 0.03 | 0.51 ± 0.085 |
| TTTTTTGATGCTGCTCAGCATTTTTTTTTTTTTTTCAAGT [TGAAC] | 0.629 ± 0.0081 | 0.478 ± 0.039 |
| TTTTTTGCTGATGATCATCATTTTTTTTTTTTTTTACCGG [GGCCA] | 0.69 ± 0.03 | 0.551 ± 0.059 |
| TTTTTGCATGCTGCTCATGCTTTTTTTTTTTTTTTTAAGA [AGAAT] | 0.649 ± 0.011 | 0.589 ± 0.024 |
| TTTTTTGATCAGCAGCATGCTTTTTTTTTTTTTTTCGTTA [ATTGC] | 0.561 ± 0.012 | 0.398 ± 0.052 |
| TTTTTTCATCATGCTCATCATTTTTTTTTTTTTTTGGAGG | 0.689 ± 0.0083 | 0.534 ± 0.029 |
| TTTTTGCATGAGCATGCTGCTTTTTTTTTTTTTTTTCTAA [AATCT] | 0.539 ± 0.023 | 0.454 ± 0.047 |

| Sequence | background-corrected fluorescence (dye: Cy3 (3' terminal)) | background-corrected fluorescence (dye: Cy5 (3' terminal)) |
| --- | --- | --- |
| TTTTTTGCTGCTCATCATCATTTTTTTTTTTTTTTAAGGG [GGGAA] | 0.649 ± 0.021 | 0.558 ± 0.029 |
| TTTTTTCATCATCAGCAGCATTTTTTTTTTTTTTTGGGTT | 0.598 ± 0.011 | 0.489 ± 0.031 |
| TTTTTTGATCATCATCATGATTTTTTTTTTTTTTTCGGGC | 0.576 ± 0.032 | 0.487 ± 0.024 |
| TTTTTTCAGCATGAGCATGCTTTTTTTTTTTTTTTGTCTA [ATCTG] | 0.539 ± 0.01 | 0.381 ± 0.021 |
| TTTTTTCAGCATGATGCGCATTTTTTTTTTTTTTTGTCAT [TACTG] | 0.529 ± 0.025 | 0.39 ± 0.03 |
| TTTTTTGAGCATGCTGATGATTTTTTTTTTTTTTTCTACC [CCATC] | 0.375 ± 0.032 | 0.284 ± 0.016 |
| TTTTTTGCTGCTGCTGCTGCTTTTTTTTTTTTTTTAAAAA | 0.593 ± 0.0096 | 0.476 ± 0.026 |
| TTTTTTCAGCATGCTGAGCATTTTTTTTTTTTTTTGTACT [TCATG] | 0.476 ± 0.0074 | 0.399 ± 0.025 |
| TTTTTTGATCATGATGATGCTTTTTTTTTTTTTTTCGCCA [ACCGC] | 0.49 ± 0.03 | 0.423 ± 0.051 |
| TTTTTTGAGCAGCATGATCATTTTTTTTTTTTTTTCTTCG [GCTTC] | 0.477 ± 0.0068 | 0.384 ± 0.019 |
| TTTTTTGCTCAGCATCATCATTTTTTTTTTTTTTTAGTGG [GGTGA] | 0.625 ± 0.034 | 0.546 ± 0.076 |
| TTTTTGCAGCATCATCATGCTTTTTTTTTTTTTTTTTGGA [AGGTT] | 0.689 ± 0.02 | 0.638 ± 0.054 |
| TTTTTTGAGCATGCTGATGCTTTTTTTTTTTTTTTCTACA [ACATC] | 0.498 ± 0.043 | 0.364 ± 0.024 |
| TTTTTGCATCATGCGCATGATTTTTTTTTTTTTTTTGATC [CTAGT] | 0.442 ± 0.024 | 0.335 ± 0.028 |
| TTTTTTGAGCATCATCATGATTTTTTTTTTTTTTTCTGGC [CGGTC] | 0.533 ± 0.0091 | 0.439 ± 0.035 |
| TTTTTTGATCATGATGCTGCTTTTTTTTTTTTTTTCGCAA [AACGC] | 0.552 ± 0.031 | 0.443 ± 0.035 |
| TTTTTTGATCATGCTCATGATTTTTTTTTTTTTTTCGAGC | 0.547 ± 0.018 | 0.425 ± 0.035 |
| TTTTTGCAGCAGCATCATGCTTTTTTTTTTTTTTTTTTGA [AGTTT] | 0.634 ± 0.029 | 0.524 ± 0.03 |
| TTTTTTGATGCTCAGCATGCTTTTTTTTTTTTTTTCAGTA [ATGAC] | 0.609 ± 0.021 | 0.461 ± 0.022 |
| TTTTTGCATCATGCTCAGCATTTTTTTTTTTTTTTTGAGT | 0.659 ± 0.023 | 0.539 ± 0.029 |
| TTTTTTGCGCATGATCATCATTTTTTTTTTTTTTTATCGG [GGCTA] | 0.609 ± 0.022 | 0.504 ± 0.027 |
| TTTTTTGCTGAGCATGATGCTTTTTTTTTTTTTTTACTCA | 0.482 ± 0.028 | 0.346 ± 0.028 |
| TTTTTGCATGCTGATGCTCATTTTTTTTTTTTTTTTACAG [GACAT] | 0.499 ± 0.036 | 0.413 ± 0.03 |

| Sequence | background-corrected fluorescence (dye: Cy3 (3' terminal)) | background-corrected fluorescence (dye: Cy5 (3' terminal)) |
| --- | --- | --- |
| TTTTTTGCTCATCATGCTCATTTTTTTTTTTTTTTAGGAG [GAGGA] | 0.597 ± 0.023 | 0.507 ± 0.034 |
| TTTTTGCATGCTGCTGCTCATTTTTTTTTTTTTTTTAAAG [GAAAT] | 0.552 ± 0.036 | 0.397 ± 0.021 |
| TTTTTTGATCATGCTGCTCATTTTTTTTTTTTTTTCGAAG [GAAGC] | 0.609 ± 0.013 | 0.463 ± 0.021 |
| TTTTTTGCGCAGCAGCATGATTTTTTTTTTTTTTTATTTC [CTTTA] | 0.404 ± 0.0099 | 0.307 ± 0.019 |
| TTTTTTGCTCATGCGCAGCATTTTTTTTTTTTTTTAGATT | 0.565 ± 0.035 | 0.41 ± 0.018 |
| TTTTTTGCTCATGATGCGCATTTTTTTTTTTTTTTAGCAT [TACGA] | 0.519 ± 0.039 | 0.405 ± 0.032 |
| TTTTTTCAGCATGCTCATGATTTTTTTTTTTTTTTGTAGC [CGATG] | 0.535 ± 0.028 | 0.441 ± 0.081 |
| TTTTTGCATGATGATGCTGATTTTTTTTTTTTTTTTCCAC [CACCT] | 0.379 ± 0.023 | 0.273 ± 0.016 |
| TTTTTTCATGATCATGCTGATTTTTTTTTTTTTTTGCGAC [CAGCG] | 0.518 ± 0.026 | 0.394 ± 0.023 |
| TTTTTTCATGAGCATCATGCTTTTTTTTTTTTTTTGCTGA [AGTCG] | 0.5917 ± 0.0054 | 0.525 ± 0.036 |
| TTTTTTCATCATGCTGCGCATTTTTTTTTTTTTTTGGAAT [TAAGG] | 0.594 ± 0.033 | 0.453 ± 0.043 |
| TTTTTGCATCATGCTCATGCTTTTTTTTTTTTTTTTGAGA [AGAGT] | 0.679 ± 0.038 | 0.593 ± 0.044 |
| TTTTTGCATGATGCTCATGCTTTTTTTTTTTTTTTTCAGA [AGACT] | 0.615 ± 0.017 | 0.531 ± 0.036 |
| TTTTTTGAGCATGATGCGCATTTTTTTTTTTTTTTCTCAT [TACTC] | 0.513 ± 0.018 | 0.378 ± 0.019 |
| TTTTTGCATGCGCAGCATGATTTTTTTTTTTTTTTTATTC [CTTAT] | 0.394 ± 0.023 | 0.292 ± 0.018 |
| TTTTTGCAGCAGCATGATGATTTTTTTTTTTTTTTTTTCC [CCTTT] | 0.363 ± 0.017 | 0.253 ± 0.015 |
| TTTTTGCAGCATGCTGCTGATTTTTTTTTTTTTTTTTAAC [CAATT] | 0.408 ± 0.011 | 0.314 ± 0.026 |
| TTTTTTCAGCATCAGCAGCATTTTTTTTTTTTTTTGTGTT | 0.565 ± 0.028 | 0.435 ± 0.082 |
| TTTTTTGATGCGCATCAGCATTTTTTTTTTTTTTTCATGT [TGTAC] | 0.615 ± 0.028 | 0.464 ± 0.032 |
| TTTTTGCATGATGAGCAGCATTTTTTTTTTTTTTTTCCTT | 0.435 ± 0.027 | 0.351 ± 0.029 |
| TTTTTTCAGCAGCATGCTCATTTTTTTTTTTTTTTGTTAG [GATTG] | 0.541 ± 0.019 | 0.438 ± 0.067 |
| TTTTTTGATCAGCATGCTCATTTTTTTTTTTTTTTCGTAG [GATGC] | 0.615 ± 0.024 | 0.435 ± 0.03 |
| TTTTTTCATGATCAGCATGATTTTTTTTTTTTTTTGCGTC [CTGCG] | 0.481 ± 0.033 | 0.366 ± 0.028 |
